This sample holds only a part of the variants without activity.
B1: TPR 5TU (parent)
chain: GGAUCUUCUCGAUCUAACAAAAAAGACAAAUCUGCCACAAAGCUUGAGAGCAUCUUCGGAUGCAGAGGCGGCAGCCUUCGGUGGCGCGAUAGCGCCAACGUUCUCAACUAUGACACGCAAAACGCGUGCUCCGUUGAAUGGAGUUUAUCAUG

Variants of: B1
Test: polymerase ribozyme fitness, log enrichment relative to wild type (log ratio); higher = more active; in vitro selection for triplet polymerase activity
Method in brief: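 In triplicate, a single round of in vitro selection was run on each mutant library, PCR-built and transcribed, covering one subunit of a heterodimeric triplet polymerase ribozyme. Frozen incubation at −7 °C followed annealing with a biotinylated primer, partner subunit and triplets, and extended constructs were then gel-excised, streptavidin-captured and taken through RT-PCR. Fitness is the logarithm of genotype enrichment over wild-type enrichment, from inverse-variance-weighted replicate averages of Illumina-sequenced inputs and outputs. […] only genotypes with ≥10 input reads and ≥1 read per output were kept.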

Variant	polymerase ribozyme fitness (log ratio)
GGAUCUUCCCGAUCUAACAAAAAAGACAAAUCUGCAACAAAGCUAGCGUGCGUCGUCGGAUGCAGAGUCGGCAGCCUUCUGUGGCGCGAUAGCUCCAACGUUCUCAACUAUGACACGCAAAACGCGUGCUCCGUUGAAUGGAGUUUAUCAUG	≤ -4.2
GGAUCUUCCCAAUCUAACAAAAUAGACAAAUCUGCUACAAAGCUUGAGAGAAUCUUCGGAUGCAGAGGCGGCAGCCUUCGGUGGCGCGAUACCGCCAACGUUCUCAACUAUGACACCCAAAACGCGUGCUCCGUUGAAUGGAGUUUAUCAUG	≤ -4.2
GGAUCUUCCCGAUCUAACAAAAAAGACAAAUCUGCCCCAGAGCUUGAGAGCAACUUCGGAUGCAGAGGCGGCAGUCAUCGGUGGCGCGAUAGCGCCAACGUUCUCAACUAUGACACGCUAAACGCGUGCUCCGUUGAAUGGAGUUUAUCAUG	≤ -4.2
GGAUCUUCCCGAUCUAACAAAAAAGACAAAUCUGCCACAAAGCUUGAGAGCAUCUUCAGAUGCAGAGGCGGCAGCCUUCGGUGGCGCGAUAGCGCCAUCGUUCUCAACUAUGACACGCAAAACGCGUGCUCCGUUGAAUGGAGUUUAUCAUG	≤ -4.2
GGAUCUUCCCGAUCGAUCAAUAAAGAGAAAUCUGCCACAAAGCUUGAGAGCAUCUACGGAUGCAGAGACGGCAGCCUUCGGUGGCGCGAUAGCGCCAACGUUCUCAACUAUGACACGCAAAACGCGUGCUCCGUUGAAUGGAGUUUAUCAUG	≤ -4.2
GGAUCUUCCCGAUCUAACAAAAAAGACAAACCUGCCACAACGCUUGACAGCUUCUUCGGAUGCAGAGGCGGCAGCCUUCGGUGGCGCGAUAGUGACAACGUUCUCAACUAUGACACGCAAAACGCGUGCUCCGUUGAAUAGAGUUUAUCAUG	≤ -4.2
GGAUCUUCCCGAUCUAACAAAAAAGACAAAUCUGCCACAAAGCUUGAGAGCAUCUUCGGAUGCAGAGGCGGCAGCCUUCGGUGGCGCGAUAGCGCUAACGUUCUCAACUGUGACACGCAAAACGCGUGCUCCGUUGAAUGGAGUUUAUCAUG	≤ -4.2
GGAUCUUCCCGAUCUAACAAAAAAGACAAAUCUGCCACAAAGCUUGAGAGCCUCUUCGGAAGCAGAGGCGGCAGCCUUCGGUGGCGCGAUAGCGCGAACGUUGUCAACUAUGACACGCAAAACGCGUGCUCCGUUGAAUGGCGUUUAUCAUG	-4
GGAUCUUCCCGAUCUAACAAAAAAGAGAAAUCUGCCACAAAGCGUGAGAGCAUCUUCGGAUGCAGAGGCGGCAGCCUUCGGUGGUGCGAUAGGGCCAACGUUCUCAACUAUGACACGCAAAACGCGUGCUCCGUUGAAUGGAGUUUAUCAUG	≤ -4.2
GGAUCUUCCCGAUCUAACAAAAAAGACAAAUCUGCCACAAAGCUUGAGAGCAUCUUUGGAUGCAGAGGCGGCAGCCUUCGGUAGCGCGAUAGCGCCAACGUUCUCAACUAUGACACGCUAAACCCGUGCUCCGUUGAAUGGAGUUUAUCAUG	≤ -4.2
GGAUCUUCCCGAUCUAACAAAAAAGACAAAUCUGCCACAAAGCUUGAGAGCAUCUUCGGAUGCAGAGGCGGCAGCCUUCGGUGGCGCGAUAGCGCCAACGUUCUCAACUAUGACACGCUAAACGCGUGCUCCGUUGAAUGGAGUUUAUCAUG	≤ -4.2
GGAUCUUCCCGAUCUAACAAAAAAGACAAAUCUGCCACAAAGCUUGAGAGCAUCUUCGGAUGCAGAGGCGGCAGCCUUCGGUGGCGCGAUAGCGCCGACGUUCUCAACUAUGACACGCAAAACGCGUGCUCCGUUGAAUGGAGUUUAUCAUG	-2.82
GGAUCUUCCCGAUCUAACAAAAAAGACGAAUCUGCCAAAAAGCUUGAGAGCAUGUUCGGAUGCAGAGGCGGCAGCCUUCGGUGGCGCCAUAGCGCCAACGUUAUCAACUAUGACACGCAAAACGCGUGCUCCGUUGAAUGGAGUUUAUCAUG	≤ -4.2
GGAUCUUCCCUAUCUGACAAAAAAGACAAAUCUGCCACAAAGCUUGAGAGGAUCUUCGGAUGCAGAGGCGGCAGCCUUCGGUGGCGCGAUAGGGCCAACGUUCUCAACUAUUACACGCAAAACGCGUGCUCCGUUGAAUGGAGUUUAUCAUG	≤ -4.2
GGAUCUUCCCGAUCUAACAAAAAAGACGAAUCUGCCACAAAGCUUGAGAGCAUCUUAGGAUGCAGAGGCGGCAGCCUUCGGUGGCGCGAUAGCGCGAACGUUCUCAACUAUGACACGCAAAACGCGUGCUCCGUUGAAUGGAGUUUAUCACG	≤ -4.2
GGAUCUUCCCGAUCUAACAAAAAAGACAAAUCCGCCACAAAGCUUGAGAGCAUCUUCGGAUGCAGAGGCGGCAGCCUUCGGUGGCGAGAUAGCGCCAACGUUCUCAACUAUGACACGCAAACCGCGUGCUCCGUUGAAUGGAGUUUAUCAUG	≤ -4.2
GGAUCUUCCCGAUCUAACAAAAAAGACAAAUCUGCCACAAAGCUUGAGAGCAUCUUCGGAUGCAGAGGCGGCAGCCUUCGGUGGCGCCAUAGCGCCAACGUUCUCAACUAUGACACGCAAAACGCGUGCUCCGUUGCAUGGAGUUUAUCAUG	≤ -4.2
GGAUCUUCCCGAUCUAACAAAAAAGACAAAUCUGCCACAAAGCUUGAGAGCCUCUUCGGAUGCAGAAGCGGCAUCCUUCGGUGGCUCGAUAGUGCCAACGUUCUCAACUAUGACGCGCAAAACGCGUGCUCCGUUGAAUGGAGUUUAUCAUG	≤ -4.2
GGAUCUUCCCGAUCUAACAAAAAAGUCAAAUCUGCCACAAAGCUUGAGAGCAUUUUCGGAUGCAGAGGCGGCAGCCUUCGGUGGCGCGAUAACGCCAACGUUCUCAACUAUGACACGCAAAACGCGUGCUCCGUUGAAUGGAGUUUAUCAUG	≤ -4.2

From the RNAGym collection of RNA variant scans (doi:10.1073/pnas.2313332121)
